Experimental data published in PMC3080401, “Oligomerization of the E. coli Core RNA Polymerase: Formation of (α2ββ'ω)2–DNA Complexes and Regulation of the Oligomerization by Auxiliary Subunits”.

How the values were obtained:
[1] = target: RNA polymerase core enzyme (alpha2 beta beta' omega);NusA (Escherichia coli;Escherichia coli, UniProt P0A7Z4;P0A8V2;P0A8T7;P0A800;P0AFF6 1-329;1-1342;1-1407;1-91;1-495, |); experiment: EMSA; 160 nM core, NusA titration; tandem core-DNA complex dissociated to single copy; EMSA buffer D (1x): 20 mM Tris-acetate, 10 mM Mg acetate, 50 mM K acetate, 1 mM DTT, pH 7.8; native PAGE in 0.5x TBE running buffer; 37 C for the tac and slyD template reactions, otherwise temperature not stated; conditions: protein: native;recombinant; tags: ;; chain copies: 2;1;1;1;1; label: 5'-32P
[2] = target: RNA polymerase core enzyme (alpha2 beta beta' omega);RapA (Escherichia coli;Escherichia coli, UniProt P0A7Z4;P0A8V2;P0A8T7;P0A800;P60240 1-329;1-1342;1-1407;1-91;1-968, |); experiment: EMSA; 160 nM core, RapA titration; shifts to single-copy core-RapA-DNA complex; EMSA buffer D (1x): 20 mM Tris-acetate, 10 mM Mg acetate, 50 mM K acetate, 1 mM DTT, pH 7.8; native PAGE in 0.5x TBE running buffer; 37 C for the tac and slyD template reactions, otherwise temperature not stated; conditions: protein: native;recombinant; tags: ;; chain copies: 2;1;1;1;1; label: 5'-32P

B1: short DNA probe (Fig 2E) (mixed)
DNA: CGCGCCAACAGCGACATCAAATTTGTCGCC
binding result [1]: binds
binding result [2]: binds
